Target: IgG4 Fc fragment SEQ ID NO: 102, no modification (Homo sapiens (Human)) [IgG part: P01861]
Test: SEC peak area ratio; coexpression of full-length heavy chain, light chain and Fc fragment

Sequence of IgG4 Fc fragment SEQ ID NO: 102, no modification (Homo sapiens (Human)) [IgG part: P01861] (P01861 other isoform, or with tags, fused parts or gaps limits assumed): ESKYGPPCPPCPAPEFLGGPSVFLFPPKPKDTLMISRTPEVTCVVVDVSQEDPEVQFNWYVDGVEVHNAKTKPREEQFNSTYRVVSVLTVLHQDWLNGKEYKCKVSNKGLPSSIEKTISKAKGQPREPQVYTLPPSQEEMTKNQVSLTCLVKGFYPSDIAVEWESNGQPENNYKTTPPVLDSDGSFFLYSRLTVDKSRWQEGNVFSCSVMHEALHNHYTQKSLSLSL

Heteromultimer (%): 4.6%
Substance: IgG4 full-length heavy chain SEQ ID NO: 110 with Q347E/S354Y/T366Y/Y407T, expressed with light chain SEQ ID NO: 61 (antibody)

Reference: patent publication US20260217835A1
